13 molecules from US12679878B2, “CRF2 receptor agonists and their use in therapy” (SANOFI, priority 2020, dated 2026) can be followed below.

Starred links: 1 amine or outer side, 2 acyl side, 3 side chain; linkers in the order of their positions; H or OH if unused. Groups on a side chain read outwards from the residue. No end group written: not given here. *: point of attachment. C18 diacid = O=C(O)CCCCCCCCCCCCCCCCC(=O)*; γGlu = O=C(O)[C@H](CCC(=O)[*:2])N[*:1]; Palmitoyl = CCCCCCCCCCCCCCCC(=O)*; AEEA = NCCOCCOCC(=O)O

This test concerns the target human corticotropin-releasing factor 2α (CRF2 α receptor) (human), Q13324. The test is described as follows: cell-based or functional assay.

Chain of human corticotropin-releasing factor 2α (CRF2 α receptor) (human), Q13324 (Q13324 20-411): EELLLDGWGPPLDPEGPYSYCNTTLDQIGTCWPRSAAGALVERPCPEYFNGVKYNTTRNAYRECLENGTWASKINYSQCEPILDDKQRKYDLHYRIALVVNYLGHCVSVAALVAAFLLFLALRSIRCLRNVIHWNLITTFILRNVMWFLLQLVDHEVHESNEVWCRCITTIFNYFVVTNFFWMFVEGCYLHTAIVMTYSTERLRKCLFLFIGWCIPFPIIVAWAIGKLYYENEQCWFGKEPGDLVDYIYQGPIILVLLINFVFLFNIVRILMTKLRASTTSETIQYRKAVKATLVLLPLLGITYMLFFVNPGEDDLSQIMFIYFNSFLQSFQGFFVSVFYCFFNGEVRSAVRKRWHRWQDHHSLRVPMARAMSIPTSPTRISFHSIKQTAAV

B1: SEQ ID NO: 66 (peptide)
peptide: FTLSLDVPIGLKQILLKQQKQKKERQKAETNVQLLERV-NH2
modifications: not fully specified (residue 12); printed as FTLSLDVPIGLK*QILLKQQKQKKERQKAETNVQLLERV-NH2
Consider B1, for which the EC50 [nM], 0% HSA amounted to 25.4 nM.

B2: SEQ ID NO: 58 (peptide)
peptide: FTLSLDVPTKIKQILFKQQKQKKERQQAEKNKQLLEQI-NH2
modifications: not fully specified (residue 12); printed as FTLSLDVPTKIK*QILFKQQKQKKERQQAEKNKQLLEQI-NH2
In turn, B2 returned an EC50 [nM], 0% HSA of 0.28 nM.

B3: SEQ ID NO: 3 (peptide)
peptide: IVLSLDVPIKLK([γGlu-Palmitoyl])KILLEQEKQEKEKQQAEKNAQILAQV-NH2
modifications: N-terminus assumed
SMILES: CCCCCCCCCCCCCCCC(=O)N[C@@H](CCC(=O)NCCCC[C@H](NC(=O)[C@H](CC(C)C)NC(=O)[C@H](CCCCN)NC(=O)[C@@H](NC(=O)[C@@H]1CCCN1C(=O)[C@@H](NC(=O)[C@H](CC(=O)O)NC(=O)[C@H](CC(C)C)NC(=O)[C@H](CO)NC(=O)[C@H](CC(C)C)NC(=O)[C@@H](NC(=O)[C@@H](N)[C@@H](C)CC)C(C)C)C(C)C)[C@@H](C)CC)C(=O)N[C@@H](CCCCN)C(=O)N[C@H](C(=O)N[C@@H](CC(C)C)C(=O)N[C@@H](CC(C)C)C(=O)N[C@@H](CCC(=O)O)C(=O)N[C@@H](CCC(N)=O)C(=O)N[C@@H](CCC(=O)O)C(=O)N[C@@H](CCCCN)C(=O)N[C@@H](CCC(N)=O)C(=O)N[C@@H](CCC(=O)O)C(=O)N[C@@H](CCCCN)C(=O)N[C@@H](CCC(=O)O)C(=O)N[C@@H](CCCCN)C(=O)N[C@@H](CCC(N)=O)C(=O)N[C@@H](CCC(N)=O)C(=O)N[C@@H](C)C(=O)N[C@@H](CCC(=O)O)C(=O)N[C@@H](CCCCN)C(=O)N[C@@H](CC(N)=O)C(=O)N[C@@H](C)C(=O)N[C@@H](CCC(N)=O)C(=O)N[C@H](C(=O)N[C@@H](CC(C)C)C(=O)N[C@@H](C)C(=O)N[C@@H](CCC(N)=O)C(=O)N[C@H](C(N)=O)C(C)C)[C@@H](C)CC)[C@@H](C)CC)C(=O)O
Consider B3, for which the EC50 [nM], 0% HSA amounted to 0.01 nM.

B4: SEQ ID NO: 63 (peptide)
peptide: FTLSLDVPIKLKQILLEQQKQKKERQQAETNVQLLERV-NH2
modifications: not fully specified (residue 12); printed as FTLSLDVPIKLK*QILLEQQKQKKERQQAETNVQLLERV-NH2
For the molecule B4, the EC50 [nM], 0% HSA came out at 0.63 nM.

B5: SEQ ID NO: 61 (peptide)
peptide: FTLSLDVPTKIKQILLKQQKQKKERQQAETNKQLLERV-NH2
modifications: not fully specified (residue 12); printed as FTLSLDVPTKIK*QILLKQQKQKKERQQAETNKQLLERV-NH2
B5: the EC50 [nM], 0% HSA is 0.38 nM.

B6: SEQ ID NO: 62 (peptide)
peptide: FTLSLDVPIKLKQILLKQQKQKKERQQAETNVQLLERV-NH2
modifications: not fully specified (residue 12); printed as FTLSLDVPIKLK*QILLKQQKQKKERQQAETNVQLLERV-NH2
B6 registered an EC50 [nM], 0% HSA of 0.8 nM.

B7: SEQ ID NO: 57 (peptide)
peptide: FTLSLDVPIGLK([AEEA-AEEA-γGlu-C18 diacid])QILLKQQKQKKERQKAETNVQLLERV-NH2
modifications: N-terminus assumed
SMILES: CC[C@H](C)[C@H](NC(=O)[C@H](CCC(N)=O)NC(=O)[C@H](CCCCNC(=O)COCCOCCNC(=O)COCCOCCNC(=O)CC[C@H](NC(=O)CCCCCCCCCCCCCCCCC(=O)O)C(=O)O)NC(=O)[C@H](CC(C)C)NC(=O)CNC(=O)[C@@H](NC(=O)[C@@H]1CCCN1C(=O)[C@@H](NC(=O)[C@H](CC(=O)O)NC(=O)[C@H](CC(C)C)NC(=O)[C@H](CO)NC(=O)[C@H](CC(C)C)NC(=O)[C@@H](NC(=O)[C@@H](N)Cc1ccccc1)[C@@H](C)O)C(C)C)[C@@H](C)CC)C(=O)N[C@@H](CC(C)C)C(=O)N[C@@H](CC(C)C)C(=O)N[C@@H](CCCCN)C(=O)N[C@@H](CCC(N)=O)C(=O)N[C@@H](CCC(N)=O)C(=O)N[C@@H](CCCCN)C(=O)N[C@@H](CCC(N)=O)C(=O)N[C@@H](CCCCN)C(=O)N[C@@H](CCCCN)C(=O)N[C@@H](CCC(=O)O)C(=O)N[C@@H](CCCNC(=N)N)C(=O)N[C@@H](CCC(N)=O)C(=O)N[C@@H](CCCCN)C(=O)N[C@@H](C)C(=O)N[C@@H](CCC(=O)O)C(=O)N[C@H](C(=O)N[C@@H](CC(N)=O)C(=O)N[C@H](C(=O)N[C@@H](CCC(N)=O)C(=O)N[C@@H](CC(C)C)C(=O)N[C@@H](CC(C)C)C(=O)N[C@@H](CCC(=O)O)C(=O)N[C@@H](CCCNC(=N)N)C(=O)N[C@H](C(N)=O)C(C)C)C(C)C)[C@@H](C)O
The molecule B7 had an EC50 [nM], 0% HSA of 38.8 nM.

B8: SEQ ID NO: 59 (peptide)
peptide: FTLSLDVPTKIKQILLKQQKQKKERQQAEKNKQLLEQI-NH2
modifications: not fully specified (residue 12); printed as FTLSLDVPTKIK*QILLKQQKQKKERQQAEKNKQLLEQI-NH2
In the case of B8, the EC50 [nM], 0% HSA was found to be 0.15 nM and the EC50 [nM], 0.1% HSA came to 17.4 nM.

B9: SEQ ID NO: 65 (peptide)
peptide: FTLSLDVPIGLKQILLKQQKQKKERQQAETNVQLLERV-NH2
modifications: not fully specified (residue 12); printed as FTLSLDVPIGLK*QILLKQQKQKKERQQAETNVQLLERV-NH2
In turn, B9 displayed an EC50 [nM], 0% HSA of 9.31 nM.

B10: SEQ ID NO: 56 (peptide)
peptide: FTLSLDVPIGLK([AEEA-AEEA-γGlu-C18 diacid])QILLKQQKQKKERQQAETNVQLLERV-NH2
modifications: N-terminus assumed
SMILES: CC[C@H](C)[C@H](NC(=O)[C@H](CCC(N)=O)NC(=O)[C@H](CCCCNC(=O)COCCOCCNC(=O)COCCOCCNC(=O)CC[C@H](NC(=O)CCCCCCCCCCCCCCCCC(=O)O)C(=O)O)NC(=O)[C@H](CC(C)C)NC(=O)CNC(=O)[C@@H](NC(=O)[C@@H]1CCCN1C(=O)[C@@H](NC(=O)[C@H](CC(=O)O)NC(=O)[C@H](CC(C)C)NC(=O)[C@H](CO)NC(=O)[C@H](CC(C)C)NC(=O)[C@@H](NC(=O)[C@@H](N)Cc1ccccc1)[C@@H](C)O)C(C)C)[C@@H](C)CC)C(=O)N[C@@H](CC(C)C)C(=O)N[C@@H](CC(C)C)C(=O)N[C@@H](CCCCN)C(=O)N[C@@H](CCC(N)=O)C(=O)N[C@@H](CCC(N)=O)C(=O)N[C@@H](CCCCN)C(=O)N[C@@H](CCC(N)=O)C(=O)N[C@@H](CCCCN)C(=O)N[C@@H](CCCCN)C(=O)N[C@@H](CCC(=O)O)C(=O)N[C@@H](CCCNC(=N)N)C(=O)N[C@@H](CCC(N)=O)C(=O)N[C@@H](CCC(N)=O)C(=O)N[C@@H](C)C(=O)N[C@@H](CCC(=O)O)C(=O)N[C@H](C(=O)N[C@@H](CC(N)=O)C(=O)N[C@H](C(=O)N[C@@H](CCC(N)=O)C(=O)N[C@@H](CC(C)C)C(=O)N[C@@H](CC(C)C)C(=O)N[C@@H](CCC(=O)O)C(=O)N[C@@H](CCCNC(=N)N)C(=O)N[C@H](C(N)=O)C(C)C)C(C)C)[C@@H](C)O
In the case of B10, the EC50 [nM], 0% HSA worked out at 22.9 nM.

B11: SEQ ID NO: 64 (peptide)
peptide: FTLSLDVPTKIKQILLKQQKQKKERQKAETNVQLLERV-NH2
modifications: not fully specified (residue 12); printed as FTLSLDVPTKIK*QILLKQQKQKKERQKAETNVQLLERV-NH2
Molecule B11 yielded an EC50 [nM], 0% HSA of 13.2 nM.

B12: SEQ ID NO: 67 (peptide)
peptide: IVLSLDVPIKLK([AEEA-AEEA-γGlu-C18 diacid])QILLEQEKQKKQREQAETNKQILAQV-NH2
modifications: N-terminus assumed
SMILES: CC[C@H](C)[C@H](N)C(=O)N[C@H](C(=O)N[C@@H](CC(C)C)C(=O)N[C@@H](CO)C(=O)N[C@@H](CC(C)C)C(=O)N[C@@H](CC(=O)O)C(=O)N[C@H](C(=O)N1CCC[C@H]1C(=O)N[C@H](C(=O)N[C@@H](CCCCN)C(=O)N[C@@H](CC(C)C)C(=O)N[C@@H](CCCCNC(=O)COCCOCCNC(=O)COCCOCCNC(=O)CC[C@H](NC(=O)CCCCCCCCCCCCCCCCC(=O)O)C(=O)O)C(=O)N[C@@H](CCC(N)=O)C(=O)N[C@H](C(=O)N[C@@H](CC(C)C)C(=O)N[C@@H](CC(C)C)C(=O)N[C@@H](CCC(=O)O)C(=O)N[C@@H](CCC(N)=O)C(=O)N[C@@H](CCC(=O)O)C(=O)N[C@@H](CCCCN)C(=O)N[C@@H](CCC(N)=O)C(=O)N[C@@H](CCCCN)C(=O)N[C@@H](CCCCN)C(=O)N[C@@H](CCC(N)=O)C(=O)N[C@@H](CCCNC(=N)N)C(=O)N[C@@H](CCC(=O)O)C(=O)N[C@@H](CCC(N)=O)C(=O)N[C@@H](C)C(=O)N[C@@H](CCC(=O)O)C(=O)N[C@H](C(=O)N[C@@H](CC(N)=O)C(=O)N[C@@H](CCCCN)C(=O)N[C@@H](CCC(N)=O)C(=O)N[C@H](C(=O)N[C@@H](CC(C)C)C(=O)N[C@@H](C)C(=O)N[C@@H](CCC(N)=O)C(=O)N[C@H](C(N)=O)C(C)C)[C@@H](C)CC)[C@@H](C)O)[C@@H](C)CC)[C@@H](C)CC)C(C)C)C(C)C
Take B12: the EC50 [nM], 0% HSA is 0.57 nM.

B13: SEQ ID NO: 60 (peptide)
peptide: FTLSLDVPTKIKQILLKQQKQKKERQQAEKNKQLLERV-NH2
modifications: not fully specified (residue 12); printed as FTLSLDVPTKIK*QILLKQQKQKKERQQAEKNKQLLERV-NH2
As for B13, the EC50 [nM], 0% HSA is 0.48 nM.
